# Reference: patent publication US20150291689A1 (AbbVie / Abbott, published 2015)
# Key:
# rabbit IL-17 [1] = target: T1, rabbit IL-17 (Rabbit, UniProt G1SLF2 24-153); experiment: Biacore SPR, 3 experiments
# T1 sequence: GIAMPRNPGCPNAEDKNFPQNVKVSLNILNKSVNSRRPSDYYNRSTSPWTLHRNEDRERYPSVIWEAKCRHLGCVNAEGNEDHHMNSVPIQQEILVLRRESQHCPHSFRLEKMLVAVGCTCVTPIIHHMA
# [2] = target: T2, human IL-17A/F heterodimer (human, UniProt Q16552 24-155; Q96PD4 31-163); experiment: cell-based or functional assay
# T2 sequence 1: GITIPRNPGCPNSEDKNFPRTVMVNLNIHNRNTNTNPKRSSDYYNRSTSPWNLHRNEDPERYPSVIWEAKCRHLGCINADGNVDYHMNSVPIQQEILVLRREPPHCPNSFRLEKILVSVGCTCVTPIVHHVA
# T2 sequence 2: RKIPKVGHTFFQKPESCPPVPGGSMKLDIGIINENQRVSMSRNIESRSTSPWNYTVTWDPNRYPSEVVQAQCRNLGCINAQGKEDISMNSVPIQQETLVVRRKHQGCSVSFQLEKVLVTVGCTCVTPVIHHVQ
# [3] = target: T3, human IL-17A homodimer (IL-17 A/A) (human, UniProt Q16552 24-155); experiment: cell-based or functional assay
# T3 sequence: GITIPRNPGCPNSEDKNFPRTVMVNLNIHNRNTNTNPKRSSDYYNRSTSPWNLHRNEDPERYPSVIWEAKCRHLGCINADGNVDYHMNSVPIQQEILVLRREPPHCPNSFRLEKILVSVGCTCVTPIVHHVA
# human TNF-α [4] = target: T4, human TNF-α (human, UniProt P01375 77-233); experiment: cell-based or functional assay
# rat IL-17 = target: T5, rat IL-17 (Rat, UniProt Q61453 18-150, limits assumed); experiment: cell-based or functional assay
# T5 sequence (looked up): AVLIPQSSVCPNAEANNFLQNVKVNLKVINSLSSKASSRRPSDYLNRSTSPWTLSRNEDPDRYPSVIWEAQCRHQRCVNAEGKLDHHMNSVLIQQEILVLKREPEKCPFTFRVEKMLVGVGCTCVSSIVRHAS
# [5] = target: T3, human IL-17A homodimer (IL-17 A/A); experiment: cell-based or functional assay; remark: listed apart in the source
# rat TNF = target: T6, rat TNF (Rat, UniProt P16599 80-235); experiment: cell-based or functional assay
# T6 sequence (looked up): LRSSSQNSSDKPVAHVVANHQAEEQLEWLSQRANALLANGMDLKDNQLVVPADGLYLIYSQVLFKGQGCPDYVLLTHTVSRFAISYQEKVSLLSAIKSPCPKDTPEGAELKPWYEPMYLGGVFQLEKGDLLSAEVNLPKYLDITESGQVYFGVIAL
# mouse IL-17 = target: T7, mouse IL-17 (Mouse, UniProt Q62386 26-158, limits assumed); experiment: cell-based or functional assay
# T7 sequence (looked up): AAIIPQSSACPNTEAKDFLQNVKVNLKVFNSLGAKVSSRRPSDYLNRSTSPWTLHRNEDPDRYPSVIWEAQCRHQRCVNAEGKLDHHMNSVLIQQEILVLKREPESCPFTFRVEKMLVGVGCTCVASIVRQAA
# rabbit TNF = target: T8, rabbit TNF (Rabbit, UniProt P04924 80-235, limits assumed); experiment: cell-based or functional assay
# T8 sequence (looked up): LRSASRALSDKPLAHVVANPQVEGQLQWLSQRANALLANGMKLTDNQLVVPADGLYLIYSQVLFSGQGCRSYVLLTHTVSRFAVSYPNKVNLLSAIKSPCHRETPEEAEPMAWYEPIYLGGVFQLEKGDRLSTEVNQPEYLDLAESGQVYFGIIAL
# mouse TNF = target: T9, mouse TNF (Mouse, UniProt P06804 80-235); experiment: cell-based or functional assay
# T9 sequence (looked up): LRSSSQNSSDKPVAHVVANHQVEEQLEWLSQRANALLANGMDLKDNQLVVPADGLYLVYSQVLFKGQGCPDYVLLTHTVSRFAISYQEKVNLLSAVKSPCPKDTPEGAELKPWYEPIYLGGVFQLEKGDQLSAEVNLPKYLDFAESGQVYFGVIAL
# [6] = target: T10, monkey (Rhesus/Cynomolgus) IL-17 (Monkey (Rhesus/Cynomolgus), UniProt F6T3G5 24-155); experiment: cell-based or functional assay
# T10 sequence: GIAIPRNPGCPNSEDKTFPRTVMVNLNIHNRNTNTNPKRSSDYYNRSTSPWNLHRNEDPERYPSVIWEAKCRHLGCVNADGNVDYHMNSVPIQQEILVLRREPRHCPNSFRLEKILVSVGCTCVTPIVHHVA
# rabbit IL-17 [7] = target: T1, rabbit IL-17; experiment: cell-based or functional assay
# [8] = target: monkey (Rhesus/Cynomolgus) TNF (Monkey (Rhesus/Cynomolgus), UniProt P48094 77-233); experiment: cell-based or functional assay
# human TNF-α [9] = target: T4, human TNF-α; experiment: cell-based or functional assay; remark: listed apart in the source
# T4 sequence (P01375 77-233 limits assumed): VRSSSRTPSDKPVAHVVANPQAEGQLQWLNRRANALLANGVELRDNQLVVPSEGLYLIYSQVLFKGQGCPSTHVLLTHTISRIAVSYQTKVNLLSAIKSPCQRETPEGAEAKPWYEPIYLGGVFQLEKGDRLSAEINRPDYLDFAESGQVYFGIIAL
# Sequence of monkey (Rhesus/Cynomolgus) TNF (P48094 77-233 limits assumed): as the sequence (P01375 77-233 limits assumed) above, with R44T, T72N, R138L counted along it
binder,measurement,setting,value
"ABBV-257 (HMAK199-1-GS10-H10F7-M11 DVD-Ig binding protein) (bispecific antibody, N-linked glycans on the heavy chain (position not given)) heavy: EVQLVQSGAEVKKPGASVKVSCKASGYTFANYGIIWVRQAPGQGLEWMGWINTYTGKPTYAQKFQGRVTMTTDTSTSTAYMELSSLRSEDTAVYYCARKLFTTMDVTDNAMDYWGQGTTVTVSSGGGGSGGGGSEVQLVQSGAEVKKPGSSVKVSCKASGYTFTDYEIHWVRQAPGQGLEWMGVNDPESGGTFYNQKFDGRVTLTADESTSTAYMELSSLRSEDTAVYYCTRYSKWDSFDGMDYWGQGTTVTVSSASTKGPSVFPLAPSSKSTSGGTAALGCLVKDYFPEPVTVSWNSGALTSGVHTFPAVLQSSGLYSLSSVVTVPSSSLGTQTYICNVNHKPSNTKVDKKVEPKSCDKTHTCPPCPAPEAAGGPSVFLFPPKPKDQLMISRTPEVTCVVVDVSHEDPEVKFNWYVDGVEVHNAKTKPREEQYNSTYRVVSVLTVLHQDWLNGKEYKCKVSNKALPAPIEKTISKAKGQPREPQVYTLPPSREEMTKNQVSLTCLVKGFYPSDIAVEWESNGQPENNYKTTPPVLDSDGSFFLYSKLTVDKSRWQQGNVFSCSVLHEALHNHYTQKSLSLSPGK light: DIQMTQSPSSLSASVGDRVTITCRASQDISQYLNWYQQKPGKAPKLLIYYTSRLQSGVPSRFSGSGSGTDFTLTISSLQPEDFATYFCQQGNTWPPTFGQGTKLEIKRGGSGGGGSGDIQMTQSPSSLSASVGDRVTITCRASSGIISYIDWFQQKPGKAPKRLIYATFDLASGVPSRFSGSGSGTDYTLTISSLQPEDFATYYCRQVGSYPETFGQGTKLEIKRTVAAPSVFIFPPSDEQLKSGTASVVCLLNNFYPREAKVQWKVDNALQSGNSQESVTEQDSKDSTYSLSSTLTLSKADYEKHKVYACEVTHQGLSSPVTKSFNRGEC",Kd,rabbit IL-17 [1],3.3 nM
same,"Mean IC50, IL-17 dependent induction of IL-6 in fibroblasts",[2],0.11 nM
same,"Mean IC50, IL-17 dependent induction of IL-6 in fibroblasts",[3],0.026 nM
same,"Mean IC50, TNF-induced lethality of L929 cells",human TNF-α [4],0.025 nM
same,"IC50, in vitro neutralization assay",rat IL-17,0.135 nM
same,"IC50, in vitro neutralization assay",[5],0.026 nM
same,"IC50, in vitro neutralization assay",rat TNF,> 1000 nM
same,"IC50, in vitro neutralization assay",mouse IL-17,0.239 nM
same,"IC50, in vitro neutralization assay",rabbit TNF,> 1000 nM
same,"IC50, in vitro neutralization assay",mouse TNF,> 1000 nM
same,"IC50, in vitro neutralization assay",[6],0.032 nM
same,"IC50, in vitro neutralization assay",rabbit IL-17 [7],11.4 nM
same,"IC50, in vitro neutralization assay",[8],0.025 nM
same,"IC50, in vitro neutralization assay",human TNF-α [9],0.025 nM
